In paper PMC9439264:

Target: HA trimer of A/Beijing/262/1995 (H1N1), thrombin- and trypsin-treated, for the immune complex (Influenza A virus A/Beijing/262/1995 (H1N1))
Test: cryo-EM structure; 12H5 Fab with thrombin- and trypsin-treated BJ/1995 HA trimer

HA trimer of A/Beijing/262/1995 (H1N1), thrombin- and trypsin-treated, for the immune complex
stoichiometry N: 3
